Measured values published in patent US20230383245A1, “CULTURE MEDIUM COMPOSITION” (NISSAN CHEMICAL CORPORATION, priority 2014, published 2023).

Test: Viscosity measurement and state of medium composition (E type viscometer)
Assay type: physicochemical
Procedure: Deacylated gellan gum (KELCOGEL CG-LA, manufactured by SANSHO Co., Ltd.) was suspended in pure water to 0.4% (w/v), and dissolved by stirring with heating at 90° C. This aqueous solution was allowed to cool to room temperature with stirring, and sterilized at 121° C. for 20 min in an autoclave. A 2-fold concentration of DMEM/F-12 medium (manufactured by Aldrich, 50 mL) and sterilization water (47.5 mL) were placed in a 300 mL tall beaker with stirring by a homomixer (3000 rpm) at room temperature, aqueous deacylated gellan gum solution (2.5 mL) was added, and the mixture was continuously stirred for 1 min to prepare a deacylated gellan gum medium composition with a final concentration of 0.01%. Medium compositions added with aqueous deacylated gellan gum solution with final concentrations of 0.02, 0.03 and 0.05% (w/v) were similarly prepared. The viscosity of the medium compositions was measured using an E type viscometer (manufactured by Toki Sangyo Co., Ltd., Viscometer TVE-22 L, standard roter 1°34′×R24) under 37° C. condition at 100 rpm for 5 min.
The medium compositions prepared above were subjected to a suspension test of HeLa cell spheres and a viscosity measurement, in the same manner as with the deacylated gellan gum-containing medium. The viscosity of 1.0% (w/v) methylcellulose was measured at 50 rpm due to the measurement range of the apparatus.
In the same manner as in Reference Experimental Example 2, spheres of HeLa cells were formed, and several tens of the spheres were added to each medium (1 mL) prepared above, the mixture was stood still at 37° C. for 1 hr, and the suspended state of the sphere cells was visually observed. […] Furthermore, it was confirmed that addition of an equal amount of the medium to the cell suspension and centrifugation (300 to 400G, for 5 min) thereof result in sedimentation and recovery of the spheres of HeLa cells.
By a method similar to that for the polysaccharide mixture of Reference Experimental Example 9, DMEM/F-12 media containing deacylated gellan gum at a final concentration of 0.005, 0.01% (w/v) and other polysaccharide were prepared. The final concentration of polysaccharide was set to 0.1% (w/v) for xanthan gum, sodium alginate, locust bean gum, 0.2% (w/v) for methylcellulose, and 0.05% (w/v) for K-carageenan and diutan gum. The state of each medium composition and the viscosity measured by a method similar to that in Analysis Example 1 are shown in Tables 11-16.

Substance: collagen
- state (concentration 0.01 %(w/v) in DMEM/F-12): liquid
- viscosity (concentration 0.01 %(w/v) in DMEM/F-12, 37° C., 100 rpm): 1.18 mPa · s
- state (concentration 0.05 %(w/v) in DMEM/F-12): liquid/solid (gel)
- state (concentration 0.1 %(w/v) in DMEM/F-12): solid (gel)
- state (concentration 0.2 %(w/v) in DMEM/F-12): solid (gel)
